The numbers were not newly measured in article PMC7710720, which cites them from elsewhere.

Usually Kd stands for the constant that tells how readily two partners part at equilibrium.

The data set addresses Neurotensin (Homo sapiens) (UniProt P30990).

Turning to “Neurotensin receptor 2 (from UniProt O95665)”, the equilibrium dissociation constant (Kd) is 6 nM.
